Assays:
[1] = biological target: T1, CCR5 (UniProt P51681 1-352, limits assumed); assay: cell-based or functional assay
[2] = biological target: T1, CCR5; assay: competitive radioligand binding on whole CHO-CCR5 cells at 4 C, 12 pM [125I]MIP-1α tracer
Experimental: Assays were carried out essentially as (11). CHO—CCR5 cells were seeded into 24 well plates (8×10⁴ cells/well). […] After incubation, cells were washed, lysed, and the lysaes counted using a Beckman Gamma 4000 scintillation counter. Determinations were performed in duplicate and IC₅₀ values derived from monophasic curves (competition binding; one-site) fitted using Prism software (GraphPad).

T1 sequence (P51681 whole entry): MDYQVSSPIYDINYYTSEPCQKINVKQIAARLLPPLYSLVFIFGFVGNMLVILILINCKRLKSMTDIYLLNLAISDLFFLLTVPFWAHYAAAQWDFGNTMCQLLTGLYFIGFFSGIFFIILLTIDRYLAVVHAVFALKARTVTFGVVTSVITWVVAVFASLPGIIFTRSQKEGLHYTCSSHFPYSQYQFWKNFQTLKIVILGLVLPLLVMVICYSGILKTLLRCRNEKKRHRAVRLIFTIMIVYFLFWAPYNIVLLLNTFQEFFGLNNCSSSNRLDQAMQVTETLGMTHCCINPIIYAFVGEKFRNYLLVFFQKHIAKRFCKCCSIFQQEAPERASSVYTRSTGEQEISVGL

Binder | IC50, R5-tropic envelope-mediated cell fusion assay [1] | IC50 [2]
LSPVSSQSSA-RANTES (10-68) (P1) (ligand, human, range 33-91; Made by total chemical synthesis; The range 10-68 counts on mature RANTES, not on the precursor; also called mutant P1; variant P1) LSPVSSQSSACCFAYIARPLPRAHIKEYFYTSGKCSNPAVVFVTRKNRQVCANPEKKWVREYINSLEMS | 7 nM | 0.3 nM
FSPLSSQSSA-RANTES (10-68) (P2) (ligand, human, range 33-91; Made by total chemical synthesis; The range 10-68 counts on mature RANTES, not on the precursor; also called mutant P2; RANTES P2) FSPLSSQSSACCFAYIARPLPRAHIKEYFYTSGKCSNPAVVFVTRKNRQVCANPEKKWVREYINSLEMS | 0.6 nM | 0.2 nM

— patent US20040258659A1 (UNIVERSITE PIERRE ET MARIE CURIE PARIS VI, published 2004)
